# From PMC6317822, “RSM1, an Arabidopsis MYB protein, interacts with HY5/HYH to modulate seed germination and seedling development in response to abscisic acid and salinity” (PLoS Genetics, 2018)
# T1: GST-HYH (Arabidopsis thaliana, UniProt Q8W191 1-149)
# T1 sequence: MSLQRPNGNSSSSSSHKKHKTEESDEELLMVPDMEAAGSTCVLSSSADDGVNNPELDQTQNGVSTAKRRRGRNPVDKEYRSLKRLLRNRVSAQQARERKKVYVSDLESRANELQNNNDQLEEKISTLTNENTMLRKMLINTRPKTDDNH
# T2: His-HY5 (Arabidopsis thaliana, UniProt O24646 1-168)
# T2 sequence: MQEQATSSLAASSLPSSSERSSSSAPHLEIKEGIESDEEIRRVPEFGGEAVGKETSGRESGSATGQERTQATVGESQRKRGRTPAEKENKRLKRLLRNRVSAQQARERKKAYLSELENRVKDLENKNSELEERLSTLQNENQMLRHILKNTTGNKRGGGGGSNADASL
# T3: GST-HY5 (ELONGATED HYPOCOTYL 5) (Arabidopsis, UniProt O24646 1-168)
# T3 construct: HY5 (ELONGATED HYPOCOTYL 5), bZIP transcription factor, Arabidopsis, At5g11260; the CDS cloned into the EcoRI and XhoI sites of pGEX-4T-1
# T3 sequence (looked up): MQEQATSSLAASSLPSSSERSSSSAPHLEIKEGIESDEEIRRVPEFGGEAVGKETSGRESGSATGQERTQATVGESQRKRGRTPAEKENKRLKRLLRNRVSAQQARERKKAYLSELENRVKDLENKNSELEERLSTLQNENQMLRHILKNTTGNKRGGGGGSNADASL
# T4: His-RSM1 (Arabidopsis thaliana, UniProt Q9SIJ5 1-101)
# T4 sequence: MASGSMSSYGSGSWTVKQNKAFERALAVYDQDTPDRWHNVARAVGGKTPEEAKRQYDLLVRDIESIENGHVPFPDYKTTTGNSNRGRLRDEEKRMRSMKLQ
# T5: GST-HY5 (Arabidopsis thaliana, UniProt O24646 1-168)
# T5 sequence: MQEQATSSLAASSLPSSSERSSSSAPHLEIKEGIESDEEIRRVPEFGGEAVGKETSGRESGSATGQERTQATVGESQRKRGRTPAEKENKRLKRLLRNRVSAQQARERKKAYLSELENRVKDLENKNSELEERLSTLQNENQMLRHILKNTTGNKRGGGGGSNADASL
# Key:
# GST-HYH [1] = molecular target: T1, GST-HYH; assay: EMSA; EMSA: 2 ug protein in 20 uL, 10 mM Tris-HCl pH 7.5, 50 mM KCl, 1 mM DTT, 50 ng/uL poly(dI-dC), 25 C, 20 min; 4-6% native PAGE, 0.5x TBE; conditions: protein: recombinant; tags: GST (pGEX-4T-1); chain copies: 2; label: biotin 5'
# His-HY5 [2] = molecular target: T2, His-HY5; assay: as above; conditions: protein: recombinant; tags: His; chain copies: 2; label: biotin 5'
# GST-HYH [3] = molecular target: T1, GST-HYH; assay: competition; unlabeled competitor vs N1; EMSA: 2 ug protein in 20 uL, 10 mM Tris-HCl pH 7.5, 50 mM KCl, 1 mM DTT, 50 ng/uL poly(dI-dC), 25 C, 20 min; 4-6% native PAGE, 0.5x TBE; conditions: protein: recombinant; tags: GST (pGEX-4T-1); chain copies: 2; label: unlabeled
# His-HY5 [4] = molecular target: T2, His-HY5; assay: as above; conditions: protein: recombinant; tags: His; chain copies: 2; label: unlabeled
# [5] = molecular target: T3, GST-HY5 (ELONGATED HYPOCOTYL 5); assay: pull-down; 2 ug GST or GST fusion protein mixed with 2 ug His-RSM1 in 500 uL GST binding buffer (50 mM Tris-HCl pH 7.5, 100 mM NaCl, 0.1% Nonidet P-40), Glutathione Sepharose 4B beads, 4 C, 2 h; four washes; immunoblot with anti-GST or anti-His; conditions: both partners purified
# His-RSM1 = molecular target: T4, His-RSM1; assay: EMSA; EMSA: 2 ug protein in 20 uL, 10 mM Tris-HCl pH 7.5, 50 mM KCl, 1 mM DTT, 50 ng/uL poly(dI-dC), 25 C, 20 min; 4-6% native PAGE, 0.5x TBE; conditions: protein: recombinant, tags: His (pET28a)
# GST-HY5 = molecular target: T5, GST-HY5; assay: as above; conditions: protein: recombinant; tags: GST (pGEX-4T-1 in Methods); chain copies: 2; label: biotin 5' on both strands; blunt
binder,measurement,setting,value
RSM1 promoter C-box probe (WT) (dsDNA) DNA 1: ATCTAGAGAATGACGTCATAACCACTAA DNA 2: TTAGTGGTTATGACGTCATTCTCTAGAT,binding result,GST-HYH [1],binds
same,binding result,His-HY5 [2],binds
RSM1 promoter m2 competitor (dsDNA) DNA 1: ATCTAGAGAATAGTACTATAACCACTAA DNA 2: TTAGTGGTTATAGTACTATTCTCTAGAT,binding result,GST-HYH [3],no binding
same,binding result,His-HY5 [4],no binding
"His-RSM1 (RADIALIS-LIKE SANT/MYB 1) (natural protein, Arabidopsis, UniProt Q9SIJ5 1-101, looked up, the CDS of RSM1 cloned into the BamHI and SacI sites of pET28a; also called MEE3; MATERNAL EFFECT EMBRYO ARREST 3; source: E. coli BL21 (pET28a-RSM1, 1 mM IPTG), purified with Ni-NTA beads) MASGSMSSYGSGSWTVKQNKAFERALAVYDQDTPDRWHNVARAVGGKTPEEAKRQYDLLVRDIESIENGHVPFPDYKTTTGNSNRGRLRDEEKRMRSMKLQ",binding result,[5],binds
RSM1 promoter P1 (dsDNA) DNA 1: GAGACTTGTCCCTAACTTTCAACCAAAGACTTGTAATTTTCCGCGAGCAC DNA 2: GTGCTCGCGGAAAATTACAAGTCTTTGGTTGAAAGTTAGGGACAAGTCTC,binding result,His-RSM1; label: biotin 5',binds
ABI5 promoter probe (HY5 site) (dsDNA) DNA 1: CCTTATGCAGTGAATAGTCCACGTGCACTCCCAATGGAAGTTCGGAATC DNA 2: GATTCCGAACTTCCATTGGGAGTGCACGTGGACTATTCACTGCATAAGG,binding result,"His-RSM1; label: biotin 5' on both strands, blunt",no binding
same,binding result,GST-HY5,binds
RSM1 promoter P2 (dsDNA) DNA 1: GTGAGCTTTGTGCTCTGATTAGAGACCAGACTGTTCCATGAATTAAGTAC DNA 2: GTACTTAATTCATGGAACAGTCTGGTCTCTAATCAGAGCACAAAGCTCAC,binding result,His-RSM1; label: biotin 5',binds
RSM1 promoter m3 competitor (dsDNA) DNA 1: ATCTAGAGAATGACGTCATAACTGTCGG DNA 2: CCGACAGTTATGACGTCATTCTCTAGAT,binding result,GST-HYH [3],binds
same,binding result,His-HY5 [4],binds
RSM1 promoter m1 competitor (dsDNA) DNA 1: GCTGCAAGAATGACGTCATAACCACTAA DNA 2: TTAGTGGTTATGACGTCATTCTTGCAGC,binding result,GST-HYH [3],binds
same,binding result,His-HY5 [4],binds
